Columns and labels:
[1] = target: PstA (PII-like signal transduction protein A) from Listeria monocytogenes (Listeria monocytogenes); test: crystal structure; apo LmPstA (10 mg/mL); sitting drop, 20°C, 20% PEG3350, 0.1 mol/L bis-Tris pH 5.5, 0.1 mol/L ammonium acetate; 2.9 Å; trimer in the asymmetric unit
[2] = target: PstA (PII-like signal transduction protein A) from Listeria monocytogenes (Listeria monocytogenes); test: crystal structure; LmPstA (20 mg/mL) cocrystallised with 2.5 mmol/L c-di-AMP; sitting drop, 20°C, 12% PEG3350, 0.1 mol/L sodium malonate pH 4.0; 1.6 Å; trimer in the asymmetric unit
[3] = target: PstA (PII-like signal transduction protein A) from Listeria monocytogenes (Listeria monocytogenes); test: SEC; gel filtration column (S-300, GE Healthcare) of purified LmPstA
PstA (LmPstA) [4] = target: T1, PstA (LmPstA) (Listeria monocytogenes, UniProt Q8Y3Y7, N41A); test: DRaCALA binding titration with […]-c-di-AMP (saturation not achieved)
T1 construct: gene lmo2692; pstA N41A in pET20b, C-terminal His-tag

PstA (LmPstA) [5] = target: T2, PstA (LmPstA) (Listeria monocytogenes, UniProt Q8Y3Y7, F36A); test: DRaCALA binding titration with […]-c-di-AMP
T2 construct: gene lmo2692; pstA F36A in pET20b, C-terminal His-tag

| stoichiometry N [1] | stoichiometry N [2] | stoichiometry N [3] | Molecule | Kd (PstA (LmPstA) [4]) | Kd (PstA (LmPstA) [5]) |
| --- | --- | --- | --- | --- | --- |
| 3 | 3 | 3 | PstA (PII-like signal transduction protein A) from Listeria monocytogenes (natural protein) |  |  |
|  |  |  | Nc1ncnc2c1ncn2[C@@H]1O[C@@H]2COP(=O)(O)O[C@H]3[C@@H](O)[C@H](n4cnc5c(N)ncnc54)O[C@@H]3COP(=O)(O)O[C@H]2[C@H]1O [c-di-AMP] | ~140 µM | 7 µM |

Reference: article PMC4475381, “Molecular basis for the recognition of cyclic-di-AMP by PstA, a PII-like signal transduction protein” (MicrobiologyOpen, 2015)
